Substitutions are numbered along the chain they refer to.

The labels stand for the following.
T1: huCD98hc ECD Avi-His (human, UniProt P08195 105-529)
T1 construct: biotinylated on the Avi tag where captured on streptavidin; also called Human CD98-AVI-His; Human CD98hc-AVI-His
T1 sequence: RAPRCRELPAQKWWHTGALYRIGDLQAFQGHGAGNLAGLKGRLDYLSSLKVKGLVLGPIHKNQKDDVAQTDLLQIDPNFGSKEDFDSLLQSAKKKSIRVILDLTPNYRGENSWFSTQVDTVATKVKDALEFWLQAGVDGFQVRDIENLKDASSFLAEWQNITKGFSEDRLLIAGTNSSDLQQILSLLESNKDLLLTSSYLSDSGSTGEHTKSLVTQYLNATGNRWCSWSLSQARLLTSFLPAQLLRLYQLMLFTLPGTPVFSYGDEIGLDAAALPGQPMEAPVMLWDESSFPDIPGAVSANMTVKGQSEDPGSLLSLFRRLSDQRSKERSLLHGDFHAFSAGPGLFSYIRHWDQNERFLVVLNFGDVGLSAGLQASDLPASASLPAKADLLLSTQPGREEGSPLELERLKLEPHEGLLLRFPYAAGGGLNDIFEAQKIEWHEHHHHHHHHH

T2: Cyno CD98hc ECD Avi-His (cynomolgus macaque, UniProt P08195 105-529 (human entry))
T2 construct: biotinylated on the Avi tag where captured on streptavidin; also called Cyno CD98-AVI-His; Cyno CD98hc-AVI-His
T2 chain: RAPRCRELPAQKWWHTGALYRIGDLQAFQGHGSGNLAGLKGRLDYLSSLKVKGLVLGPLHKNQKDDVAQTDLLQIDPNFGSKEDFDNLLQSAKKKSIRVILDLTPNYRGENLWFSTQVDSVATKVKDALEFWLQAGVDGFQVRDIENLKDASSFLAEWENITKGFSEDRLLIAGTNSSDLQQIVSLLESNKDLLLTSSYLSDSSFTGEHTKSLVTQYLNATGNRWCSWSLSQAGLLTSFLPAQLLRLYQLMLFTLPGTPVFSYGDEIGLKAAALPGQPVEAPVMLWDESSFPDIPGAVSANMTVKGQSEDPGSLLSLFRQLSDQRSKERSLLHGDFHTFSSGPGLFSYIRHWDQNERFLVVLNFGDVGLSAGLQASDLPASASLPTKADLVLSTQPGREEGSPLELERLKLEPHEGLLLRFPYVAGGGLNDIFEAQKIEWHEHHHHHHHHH

T3: muCD98hc ECD Avi-His (mouse, UniProt P10852 100-526)
T3 construct: biotinylated on the Avi tag where captured on streptavidin; also called Mouse CD98-AVI-His; Mouse CD98hc-AVI-His
T3 sequence: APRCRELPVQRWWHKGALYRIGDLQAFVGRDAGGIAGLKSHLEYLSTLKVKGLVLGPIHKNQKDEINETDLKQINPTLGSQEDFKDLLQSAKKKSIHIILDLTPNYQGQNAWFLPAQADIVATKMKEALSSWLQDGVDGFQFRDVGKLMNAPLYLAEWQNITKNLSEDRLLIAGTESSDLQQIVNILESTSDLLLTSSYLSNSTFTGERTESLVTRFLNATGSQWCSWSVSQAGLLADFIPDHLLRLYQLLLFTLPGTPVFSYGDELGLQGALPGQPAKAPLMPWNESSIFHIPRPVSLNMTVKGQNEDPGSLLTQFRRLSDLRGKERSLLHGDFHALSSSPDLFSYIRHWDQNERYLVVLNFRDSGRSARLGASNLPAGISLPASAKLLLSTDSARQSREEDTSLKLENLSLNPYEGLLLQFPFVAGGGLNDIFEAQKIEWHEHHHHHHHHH

B1: CD98HC.04.006 (antibody, V domains shown)
VH: EVNLVESGGDLVQPGGSLRLSCATSGFTFTDYFMSWVRQPPGKALEWLGFIRNKAYGYTTEYSASVKGRFTISRDNSQSIFYLQMNTLRLEDSATYYCARGPFISTAPFAYWGQGTLVTVSA
VL: DIVMSQSPSSLAVSVGETVTMSCKSSQSLLYSSNQKNYLAWYQQKPGQSPKLLIYWGSTRESGVPDRFTGSGSGTDFTLTISSVKAEDLAVYYCQHYYGYPWTFGGGTKLEIK
notes: hybridoma IgG
B2: CD98HC.04.010 (antibody, V domains shown)
VH: QVQLQQSGAELMKPGASVKISCKATGYTFSTYWIEWVKQRPGHGLEWIGEILPGSGTTTYNEKFKGKATFTADTSSNTAYMQLSSLTSEDSAVYYCARRTVYYRYEGIDYWGQGTTLTVSS
VL: QIVLTQSPAIMSASPGEKVTITCSASSSVSYMFWFQQRPGTSPKLWIYTTSNLASGVPARFSGSGSGTSYSLTISRMEAEDAATYYCQQKNNYPFTFGSGTKLEIK
notes: hybridoma IgG
B3: CD98HC.04.009 (antibody, V domains shown)
VH: QVQLKESGPGLVAPSQSLSITCTVSGFSLTSYGVHWVRQPPGKGLEWLGVIWAGGSTYYNSALMSRLSISKDNAKSQVLLKMSSLQTDDTAMYYCARDNYGGVYLDVWGAGTTVTVSS
VL: ENVLTQSPASMSASPGEKVTMTCRASSSVSSSYLHWYQQKSGASPKLWIYSTSNLASGVPARFSGSGSGTSYSLTISSVEAEDAATYYCQQYSGYPLTFGSGTKLEIK
notes: hybridoma IgG
B4: CD98HC.04.011 (antibody, V domains shown)
VH: DVQLQESGPDLVKPSQSLSLTCSVTVYSFTSVYSWHWIRQFPGNKLEWMGYIHDSGTTNYNPSLKSRISVTRDTSKNQFFLQLNSVTTEDTATYYCARGRPYGYDGFAYWGQGTLVTVSA
VL: DIQMTQSSSYLSVSLGDRVTITCKASDHINNWLAWYQQKPGNAPRLLITGAVNLETGVPSRFSGSGSGKDYTLSITSLQTEDVATYYCQQYWSIPRTFGGGTNLEIK
notes: hybridoma IgG
B5: CD98HC.04.022 (antibody, V domains shown)
VH: EVQLQQSGAELVKPGASVKLSCTASGFNIKDTFMHWMKQRPEQGLEWIGRIDPANANTRYDPKFQGKATITTDTSSNTAYLQLSSLTSEDTAVYYCARDVYYDVWGAGTTVTVSS
VL: DILMTQSPSSMSVSLGDTVTITCHASQGISSNIGWLQQKPGRSFKGLIYHGSNLEDGVPSRFTGSGSGTDYSLTISGLESEDFADYYCVQYAQFPRTFGGGTKLEIQ
notes: hybridoma IgG
B6: CD98HC.04.013 (antibody, V domains shown)
VH: EVQLVESGGDLGMPGGSLKLSCAASGFALSGYDMSWVRQTPDKRLEWVAYLSSGGGSTYYPYTVKGRFTISRDNAQNTLYLQMSSLKSEDTAIYYCARHSEVRPWFGYWGQGTLVTVSA
VL: DIVMSQSPSSLAVSVGEKVTLTCKSSQSLLYSGNQKNYLAWYQQNPGQSPKLLIYWASTRESGVPDRFTGSGSGTDFTLTISSVKAEDLAVYYCQQYYTYPPTFGAGTKLGLK
notes: hybridoma IgG
B7: CD98HC.04.012 (antibody, V domains shown)
VH: QVQLQQSGADLVRPGDSVKISCKGSGYTFTDNTLHWVKQSHAKSLEWIGVISPYYGDASYNQKFKGKATMTVDKSSSTAYMELARLTSEDSAIYYCARVGGRLRLGYYFDHWGQGTTLTVSS
VL: NIMMTQSPSSLAVSAGEKVTMNCKSSQSVLSSSNQKNYLAWYQQKPGQSPKLLIYWASTRESGVPARFTGSGSGTDFSLTITSVQAEDLAVYYCLQYLSSYTFGGGTKLEIK
notes: hybridoma IgG
B8: CD98HC.03.031 (antibody, V domains shown)
VH: QVQLQQSGAELVRPGVSVKISCKASGYTFTDYAMHWVKQSHAKSLEWIGVISTYYGDTTYNQKFKDKATMTVDKSSSTAYLELARLTSEDSAIYYCARVWLLSYAMDNWGQGTSVTVSS
VL: DIVMTQSQRFMSTSVGDGVRITCKASQNVRTAVAWYQQKPGQSPKALINLAPNRHTGVPDRFTARGSGTDFTLTISNVQSEDLADYFCLQHWNYPLTFGAGTKLELK
notes: hybridoma IgG
B9: CD98HC.04.045 (antibody, V domains shown)
VH: QIQLVQSGPELKKPGETVKISCKASGYSITNFGMNWVKQAPGKGLKWMGWVNTYTGEPTYADDFKGRFAFSLETSASTASLQINNLKNEDTATYFCTRSVITYTMDYWGQGTSVTVSS
VL: DIQLTQSPSSLSASLGERVSLTCRASQEISGYLSWLQQKPDGTIKRLIYAASTLDSGVPKRFSGSRSGSDYSLTISSLESEDFADYYCLQYASYPRTFGGGTKVEIK
notes: hybridoma IgG
B10: CD98HC.03.002 (antibody, V domains shown)
VH: DVQLVESGGGLVQPGGSRKLSCAASGFTFSTFGMHWVRQAPEKGLEWVAYISGGSTNIYYADTVKGRFTISRDNPKNTLFLQMTSLRSEDTAMYYCARETTLLATNFDYWGQGTTLTVSS
VL: DIQMTQTTSSLSASLGDRVTISCRASQDISNYLNWYQQKPDGTVKLLIYYTSRLHSGVPSRFSGSGSGTDYSLTISNLEQEDIATYFCQQGSTLPRTFGGGTKLEIK
notes: hybridoma IgG
B11: CD98HC.04.003 (antibody, V domains shown)
VH: QVQLQQSGAELAKPGASLKMSCKASGYTFTDYYIHWVKQRPGQDLEWIGYINPNSAYTDSNQKFKDKATLTADKSSNTAYMQLSSLTSEDSAVYYCARKGHFYAPSFAYWGQGTLVTVSA
VL: B10 VL with T69A, E79Q, S92D, R96Y, K107E
notes: hybridoma IgG
B12: CD98HC.04.018 (antibody, V domains shown)
VH: QIQLVQSGPELKKPGETVKISCKASGYTFRNYGMNWVKQAPGKGLKWMGWINTYTGEPTYAEDFKGRFAFSLETSASTAYLQINKLKNEDEATYFCARGEAHWYFDVWGAGTTVTVSS
VL: QIVLTQSPAIMSASLGERVTMTCTASSSVSSSYLYWYQQKPGSSPKLWIYSIFNLASGVPARFSGSGSGTSYSLTISSMEAEDAATYYCHQYHRSPPTFGGGTKLEIK
notes: hybridoma IgG
B13: CD98HC.04.046 (antibody, V domains shown)
VH: QIQLVQSGPVLKKPGETVKISCKASGYTFTNFGMNWVKQAPGKGLKWMGWIDTYTREPTYVDDFKGRFAFSLETSVTTAYLQINDLKNEDSATYFCARGESHWYFDVWGAGTTVTVSS
VL: B12 VL with T24I, A25V, I52T, F53S, N54I, A61G
notes: hybridoma IgG

The first assay deals with T1, huCD98hc ECD Avi-His. Description: ELISA, hybridoma supernatant. Summed up:
(§1)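 Binding of hybridoma supernatants (30 min, room temperature) was read as 450 nm absorbance after TMB development and sulfuric acid quench. Antigens, Avi-His-tagged CD98hc from human, cyno or mouse plus human TfR, were captured at 1 μg/ml onto streptavidin-coated wells for 1 h.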
For orientation: An ELISA detects its analyte on a solid surface through an enzyme-linked reagent.
B1 displayed an OD450 of 1.24.

For B2, the OD450 is 1.48.

On to B3, for which the OD450 worked out at 0.991.

B4 came in with an OD450 of 1.16.

Molecule B5 had an OD450 of 1.36.

The molecule B6 returned an OD450 of 1.17.

Molecule B7 displayed an OD450 of 1.64.

B8 returned an OD450 of 1.06.

The molecule B9 registered an OD450 of 1.51.

B10 yielded an OD450 of 1.53.

As for B11, the OD450 turned out to be 1.6.

For the molecule B12, the OD450 was found to be 1.64.

Consider B13, for which the OD450 is 1.38.

For the next assay, the target named is T2, Cyno CD98hc ECD Avi-His. Description: ELISA, hybridoma supernatant. The method in brief:
as §1
B1 showed an OD450 of 1.71.

For the molecule B2, the OD450 is 1.97.

As to B3, the OD450 was found to be 1.42.

Molecule B4 returned an OD450 of 1.76.

In turn, B5 yielded an OD450 of 1.89.

B6 returned an OD450 of 2.04.

B7 yielded an OD450 of 1.73.

B8 had an OD450 of 1.48.

The molecule B9 showed an OD450 of 1.34.

Molecule B10 registered an OD450 of 1.69.

For the molecule B11, the OD450 came out at 2.05.

B12 gave an OD450 of 1.97.

As for B13, the OD450 amounted to 1.88.

The target in another assay is T3, muCD98hc ECD Avi-His. Nature of the assay: ELISA, hybridoma supernatant. The method in brief: as §1
In turn, B1 came in with an OD450 of 0.13.

Consider B2, for which the OD450 worked out at 0.0907.

B3 yielded an OD450 of 0.0688.

In the case of B4, the OD450 amounted to 0.067.

B5 registered an OD450 of 0.0554.

As for B6, the OD450 is 0.0717.

B7 had an OD450 of 0.0786.

Regarding B8, the OD450 came to 0.0843.

Regarding B9, the OD450 was 0.0764.

Molecule B10 registered an OD450 of 0.0802.

B11 came in with an OD450 of 0.0565.

In the case of B12, the OD450 is 0.079.

Turning to B13, the OD450 was 0.0817.

These data come from patent US20250270341A1 (Alector, published 2025).
